Reference: patent US20050153395A1, “Unique integrin binding site in connective tissue growth factor (CTGF)” (CHILDREN'S HOSPITAL INC., priority 2003, published 2005)
“Also recorded” adds a separate entry of the source.

Key:
integrin αvβ3 = integrin αvβ3 (Homo sapiens, UniProt P05106+P06756); test: Solid phase ELISA of integrin αvβ3 binding; conditions: coated at different concentrations
Procedure: Solid phase binding studies were also performed to investigate the binding of CTGF isoforms and αvβ3. Each CTGF isoform or vitronectin was individually coated onto microtiter wells at different concentrations, and the subsequent binding of αvβ3 was detected by ELISA using an anti-human αvβ3 monoclonal antibody. […] Saturation of binding occurred at 2 μg/ml for each CTGF isoform and 4 μg/ml for vitronectin.
In order to identify the αvβ3 binding site in CTGF4, eighteen synthetic peptides spanning the entire C-terminal region of CTGF4 (residues 246-349 of SEQ ID NO: 1) were synthesized and used as potential blocking agents in the solid phase binding studies as described in Example 3. […] Integrin αvβ3 was detected by successive incubation with anti-human αvβ3 monoclonal antibody diluted in blocking solution (1:1000), and followed by HRP-conjugated goat anti-mouse IgG (1:4000). The color reaction was developed using the horseradish peroxidase ELISA reagents (Chemicon), and the absorbance at 450 nm was measured using Bio Assay Reader (HTS700).
The ability of mutant CTGF4 to bind to integrin αvβ3 was assessed by solid phase ELISA which measured the ability of purified integrin αvβ3 to bind to the CTGF4 mutants.

[1] = tested on: pancreatic stellate cells (PSC); test: PSC adhesion assay on coated wells; format: cell-based, rat; conditions: coated at 2 μg/ml
Description: Rat PSCs were isolated by a modification of the method described by Phillips et al., Gut; 52:677-82, 2003. Briefly, pancreatic tissue was digested in situ with 0.03% collagenase P (Roche, Indianapolis, Ind.) in HBSS by perfusion through the thoracic aorta. This protocol was approved by the Institutional Animal Care and Use Committee of Children's Research Institute, Columbus, Ohio. The tissue was pooled, minced with scissors, and then digested with 0.05% collagenase P, 0.02% protease XIV (Sigma, St. Louis), and DNase I (Roche, Indianapolis, Ind.) in HBSS. The resulting cell suspension was centrifuged in a 12% Optiprep gradient at 1400 g for 14 minutes. Stellate cells separated into a hazy band just above the interface of a the gradient and the aqueous buffer. This band was harvested, and the cells washed and resuspended in DMEM supplemented with 25 mM Hepes buffer, 10% FBS, and 100 U/ml penicillin in, 100 μg/ml streptomycin. The, cells were maintained at 37° C. in a humidified atmosphere of 5% CO2/95% air.
The ability of activated PSC to adhere to non-tissue culture plastic microtiter wells coated with recombinant CTGF1-4, CTGF3-4 or CTGF4 was investigated. The solid phase binding assay was carried out as described in Example 2. […] To assess the possibility that CTGF-mediated PSC adhesion involved cell surface integrins, the effect of divalent cations on cell adhesion was examined, as described in Example 2. […]
Because CTGF is a heparin-binding protein, this property was further investigated.
To identify the peptides that bind to PSCs, cell adhesion assays were carried out as described in Example 3.
To further investigate the peptide binding, P2 or P5 (10 μM) or vehicle buffer alone (no add) were added to PSC cell suspensions for 30 minutes at room temperature.

[2] = tested on: vascular endothelial cells, intestinal epithelial, and hepatic stellate cells; test: Adhesion of cell types to 10 kDa CTGF; format: cell-based; conditions: vascular endothelial, intestinal epithelial, hepatic stellate cells
Procedure: (§1) To confirm the functionality of residues 247-349 of SEQ ID NO: 1 (containing module 4 alone; denoted as CTGF4), this region of CTGF was produced as a maltose binding protein (MBP) fusion protein in E. coli as described in Ball et al., J Endocrinol; 176: R1-R7, 2003. […] HPLC-purified 10 kDa CTGF promoted 3T3 cell adhesion in a dose-dependent manner, with maximal binding at 8 ng/well. […] Also, the binding of all cell types to 10 kDa CTGF was reduced by EDTA treatment, though this effect was relatively modest in 3T3 cells. Thus, E coli-derived CTGF isoforms comprising essentially module 4 are intrinsically functional in the absence of the other constituent modules of CTGF.

integrin α5β1 = integrin α5β1 (Homo sapiens, UniProt P05556+P08648); test: Solid phase ELISA of integrin α5β1 binding; conditions: coated at 2 μg/ml; 1 μg/ml integrin
Procedure: In a second approach, a solid phase binding assay was used in which CTGF1-4 or FN were individually coated onto microtiter wells that were subsequently incubated with purified integrin α5β1. The presence of immobilized integrin α5β1 was detected by ELISA using an anti-integrin α5β1 antibody similar to the methods described in Example 3 above. In addition, CTGF1-4 bound to integrin α5β1 in a dose-dependent manner, with maximal binding at 2 μg/ml CTGF. This level of CTGF1-4 (2 μg/ml) binding was the same as that elicited by 2 μg/ml FN, a well known ligand of integrin α5β1. In a similar experiment, 2 μg/ml of CTGF1-4;CTGF3-4 or CTGF4 were individually precoated onto microtiter wells. Using the solid-phase assay, integrin α5β1 bound to CTGF1-4, CTGF3-4 or CTGF4 See FIG. 5 (Panel B).
To directly analyze whether α5β1 integrin binds to CTGF4, microtiter wells coated with CTGF4 (2 μg/ml) or FN (4 μg/ml) were used in an ELISA assay to detect integrin binding, as described in Example 3. For these assays, 1 μg/ml integrin α5β1, alone or in the presence of 35 μM of P2peptide (CTGF[257-272]) and 35 μM of P5 peptide (CTGF [285-291]), were added to the precoated plates. […] The binding between CTGF4 and integrin α5 β1 was blocked by peptide P5 (CTGF [285-291]) or peptide P2 (CTGF[257-272]). […]

neonatal mice = test: Fibrogenic response after subcutaneous administration to neonatal mice; format: in vivo; conditions: administered subcutaneously to neonatal mice
Procedure: CTGF is also known to induce transdifferentiaion of corneal epithelial cells into α […] muscle actin (αSMA)-expressing myofibroblasts. For example, cells are cultured for 24 hours in the presence and absence of CTGF peptide or CTGF modulator. Subsequently, the treated cells are stained for αSMA. CTGF activity also may be analyzed by measuring for a classic fibrogenic response as described in Leask et al., Mol. Pathol; 54: 180-183, 2001. For example, CTGF peptide or CTGF modulator are administered into the subcutaneous region of the neck of 3 day old mice for 7 consecutive days. Fourteen days after the last injection, the mice are sacrificed and the injected areas are stained for αSMA.
(§2) Adhesion is a well-accepted and reproducible measure of CTGF activity. […] Using 4 liters of CHO conditioned medium approximately 0.5 mg, 1 mg, and 0.1 mg, respectively, of 38 kDa, 16-20 kDa, and 10 kDa CTGF (CTGF1-4, CTGF3-4 and CTGF4, respectively) were produced.

PSCs = test: PSC chemotaxis (migration) assay in culture insert; format: cell-based, rat; conditions: substance in lower chamber
Procedure: To examine whether CTGF plays a role in PSC migration, a chemotaxis assay was carried out in which the migratory behavior of PSCs in the upper chamber of a culture insert was assessed following addition of CTGF to the lower chamber. […] PSC migration was also promoted by FN, PDGF or TGF-β1.

3T3 cells = test: 3T3 cell adhesion to CTGF-coated non-tissue culture plastic; format: cell-based; conditions: HPLC-purified E. coli-derived protein
Procedure: as §2, §1

integrin α5β1, sequence (P08648 42-894 limits assumed): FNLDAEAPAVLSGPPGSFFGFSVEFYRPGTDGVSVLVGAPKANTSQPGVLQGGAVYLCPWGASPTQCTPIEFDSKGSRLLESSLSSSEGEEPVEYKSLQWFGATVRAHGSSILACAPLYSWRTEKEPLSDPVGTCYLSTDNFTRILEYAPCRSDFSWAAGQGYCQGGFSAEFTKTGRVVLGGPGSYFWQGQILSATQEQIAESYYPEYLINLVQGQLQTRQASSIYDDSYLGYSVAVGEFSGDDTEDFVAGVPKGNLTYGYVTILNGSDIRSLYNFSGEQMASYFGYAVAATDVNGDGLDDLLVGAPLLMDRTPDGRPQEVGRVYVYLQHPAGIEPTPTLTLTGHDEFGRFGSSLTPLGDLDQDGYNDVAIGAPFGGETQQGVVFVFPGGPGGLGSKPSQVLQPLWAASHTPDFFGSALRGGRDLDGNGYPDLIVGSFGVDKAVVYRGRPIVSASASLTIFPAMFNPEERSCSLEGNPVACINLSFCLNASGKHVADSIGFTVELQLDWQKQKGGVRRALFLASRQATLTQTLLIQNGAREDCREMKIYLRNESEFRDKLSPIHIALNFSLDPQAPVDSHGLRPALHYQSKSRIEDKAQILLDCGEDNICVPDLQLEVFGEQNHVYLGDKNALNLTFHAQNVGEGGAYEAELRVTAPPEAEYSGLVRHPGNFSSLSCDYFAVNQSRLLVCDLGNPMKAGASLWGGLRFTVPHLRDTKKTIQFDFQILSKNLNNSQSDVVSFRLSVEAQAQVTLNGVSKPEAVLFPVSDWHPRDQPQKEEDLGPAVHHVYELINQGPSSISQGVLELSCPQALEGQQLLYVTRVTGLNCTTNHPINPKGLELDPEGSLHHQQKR
integrin α5β1, sequence (P08648 895-1049 partner limits assumed): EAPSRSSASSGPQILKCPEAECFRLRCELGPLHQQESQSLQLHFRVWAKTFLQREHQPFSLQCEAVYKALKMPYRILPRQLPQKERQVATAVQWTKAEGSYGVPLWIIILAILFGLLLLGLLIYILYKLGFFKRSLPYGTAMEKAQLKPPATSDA
integrin α5β1, sequence (P05556 21-798): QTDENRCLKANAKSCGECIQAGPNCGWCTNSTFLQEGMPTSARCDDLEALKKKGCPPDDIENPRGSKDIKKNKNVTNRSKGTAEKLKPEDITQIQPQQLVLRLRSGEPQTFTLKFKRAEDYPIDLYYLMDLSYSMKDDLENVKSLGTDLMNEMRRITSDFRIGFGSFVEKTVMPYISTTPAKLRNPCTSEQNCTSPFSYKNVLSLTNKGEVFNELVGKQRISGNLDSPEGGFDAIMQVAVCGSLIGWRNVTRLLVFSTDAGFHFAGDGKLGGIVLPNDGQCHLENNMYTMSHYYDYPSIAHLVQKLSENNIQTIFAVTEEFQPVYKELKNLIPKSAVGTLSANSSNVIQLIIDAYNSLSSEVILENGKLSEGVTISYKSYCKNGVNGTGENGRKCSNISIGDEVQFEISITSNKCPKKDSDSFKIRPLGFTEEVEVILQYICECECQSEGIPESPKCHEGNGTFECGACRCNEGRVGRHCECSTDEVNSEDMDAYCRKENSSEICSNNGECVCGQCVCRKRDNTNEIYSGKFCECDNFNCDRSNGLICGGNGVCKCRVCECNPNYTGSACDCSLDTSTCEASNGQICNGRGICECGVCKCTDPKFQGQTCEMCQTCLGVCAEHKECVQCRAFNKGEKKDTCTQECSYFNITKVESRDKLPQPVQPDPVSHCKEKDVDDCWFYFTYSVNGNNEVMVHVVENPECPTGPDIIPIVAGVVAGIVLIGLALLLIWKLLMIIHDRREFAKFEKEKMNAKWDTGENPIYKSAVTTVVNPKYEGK
integrin αvβ3, sequence (P06756 31-889 limits assumed): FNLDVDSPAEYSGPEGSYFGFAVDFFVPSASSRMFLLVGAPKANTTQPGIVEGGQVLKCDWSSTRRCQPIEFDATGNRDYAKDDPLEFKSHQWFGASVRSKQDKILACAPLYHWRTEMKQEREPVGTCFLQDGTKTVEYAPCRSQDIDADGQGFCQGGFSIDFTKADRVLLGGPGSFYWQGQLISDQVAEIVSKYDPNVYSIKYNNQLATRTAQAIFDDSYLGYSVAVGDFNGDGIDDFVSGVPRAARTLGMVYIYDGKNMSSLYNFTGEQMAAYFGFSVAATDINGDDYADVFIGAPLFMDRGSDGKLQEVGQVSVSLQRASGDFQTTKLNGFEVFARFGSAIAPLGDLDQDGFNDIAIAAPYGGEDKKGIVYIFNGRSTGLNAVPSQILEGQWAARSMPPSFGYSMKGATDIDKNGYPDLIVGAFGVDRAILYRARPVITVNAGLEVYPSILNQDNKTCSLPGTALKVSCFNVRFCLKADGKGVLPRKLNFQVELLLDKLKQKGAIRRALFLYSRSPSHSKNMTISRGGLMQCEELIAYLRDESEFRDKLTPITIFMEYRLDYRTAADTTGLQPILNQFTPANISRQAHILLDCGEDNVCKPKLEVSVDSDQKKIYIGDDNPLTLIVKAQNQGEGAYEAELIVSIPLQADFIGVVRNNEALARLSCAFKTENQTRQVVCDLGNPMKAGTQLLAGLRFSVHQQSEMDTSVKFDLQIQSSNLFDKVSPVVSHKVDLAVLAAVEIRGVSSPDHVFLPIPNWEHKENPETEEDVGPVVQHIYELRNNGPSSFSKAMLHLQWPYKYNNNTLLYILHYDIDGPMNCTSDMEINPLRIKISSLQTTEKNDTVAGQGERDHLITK
integrin αvβ3, sequence (P06756 891-1048 partner limits assumed): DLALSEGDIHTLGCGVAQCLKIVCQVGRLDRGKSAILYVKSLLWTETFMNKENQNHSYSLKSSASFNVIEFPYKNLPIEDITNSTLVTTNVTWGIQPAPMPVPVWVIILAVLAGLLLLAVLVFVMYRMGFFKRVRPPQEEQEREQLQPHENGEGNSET
integrin αvβ3, sequence (P05106 27-788): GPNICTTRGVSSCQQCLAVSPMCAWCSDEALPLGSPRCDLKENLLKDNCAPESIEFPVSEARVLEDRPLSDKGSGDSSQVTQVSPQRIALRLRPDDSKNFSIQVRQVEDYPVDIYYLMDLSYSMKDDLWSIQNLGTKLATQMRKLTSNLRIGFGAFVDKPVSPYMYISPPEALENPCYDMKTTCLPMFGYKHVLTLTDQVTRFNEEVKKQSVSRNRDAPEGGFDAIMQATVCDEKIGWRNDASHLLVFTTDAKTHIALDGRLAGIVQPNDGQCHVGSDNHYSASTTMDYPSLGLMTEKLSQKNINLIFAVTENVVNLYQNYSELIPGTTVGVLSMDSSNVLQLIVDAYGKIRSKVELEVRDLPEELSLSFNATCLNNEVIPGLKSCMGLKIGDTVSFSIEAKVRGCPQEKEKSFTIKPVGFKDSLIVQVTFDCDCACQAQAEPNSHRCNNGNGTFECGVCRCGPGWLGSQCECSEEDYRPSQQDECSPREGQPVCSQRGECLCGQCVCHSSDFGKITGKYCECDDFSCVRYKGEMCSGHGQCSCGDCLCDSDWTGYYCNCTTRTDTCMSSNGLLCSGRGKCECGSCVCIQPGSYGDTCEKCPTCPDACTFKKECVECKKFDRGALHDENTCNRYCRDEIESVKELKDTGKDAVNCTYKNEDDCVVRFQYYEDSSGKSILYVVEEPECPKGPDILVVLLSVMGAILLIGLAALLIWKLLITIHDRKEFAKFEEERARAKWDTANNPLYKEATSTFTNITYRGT

B1: CTGF4: C-terminal CTGF fragment comprising essentially module 4 alone, residues 247-349 (protein)
chain: EENIKKGKKCIRTPKISKPIKFELSGCTSMKTYRAKFCGVCTDGRCCTPHRTTTLPVEFKCPDGEVMKKNMMFIKTCACHYNCPGDNDIFESLYYRKMYGDMA
B1 was tested, and the “binding to αvβ3” value (integrin αvβ3) was “strongest affinity”, the “PSC adhesion supported by the coated substance” value [1] was “significantly promoted” and the “adhesion of several additional cell types” value [2] was “promoted the dose-dependent adhesion”. The “binding to integrin α5β1” value (integrin α5β1) was “bound; also recorded: bound strongly”, the fibrogenic response (neonatal mice) was “most robust response” and the PSC migration (PSCs) was “induced PSC migration”. The “3T3 cell adhesion, maximal binding at” value (3T3 cells) was 8 ng/well.
